{"source": "the DeepSol protein solubility set"}
{"experiment": "soluble on expression in E. coli; label from the status in PepcDB or PDB records"}
{"sequence": "MSTPTGQPIGLGLPDAPLPVLAPRRKTRQLMVGNVGVGSDYPVSVQSMTTTKTHDVNATLQQIAQLTASGCDIVRVACPKTVDAEALPAIAKKSPIPVIADIHFQPKYIFSAIDAGCAAVRVNPGNIKEFDGRVKEVAKAAGDAGIPIRIGVNAGSLDKRIMEKYGKATPEALVESALWEAGLFEDCGFGDIAISVKHNDPVIMVEAYRQLAAQSDYPLHLGVTEAGPAFQGTIKSSVAFGSLLSQGIGDTIRVSLSADPVEEIKVGDQILQSLNLRKRGLEIVSCPSCGRAQVDVYSLAEEVTAALDGMSIPLRVAVMGCVVNGPGEARDADLGVASGNGKGQIFVRGEVIKTVPESQIVETLIEEAVRLAEAEGLEIEEGAGPQVKITR", "soluble on expression in E. coli": "not soluble"}
{"sequence": "MEHNQLIAMITEAVMEQIRPLPKINQIPVAISNRHVHLSQEDAQTLFGPNYSFKIKKDLSQPGQYACEERVTLVGPKGVIENVRILGPVRPQTQVELSVSDGIKLGITPPVRDSGDLANSAGITLVGPSGSLTLPEGVIAAARHIHMHSTDAARFGVKDRDRVSVTAPGPRGLVFRETLIRVSHNFTLEMHIDIDEANAAALRNQDYVELLLVNHLLP", "soluble on expression in E. coli": "not soluble"}
{"sequence": "MKLSTKLCWCGIKGRLRPQKQQQLHNTNLQMTELKKQKTAEQKTRPQNVGIKGIQIYIPTQCVNQSELEKFDGVSQGKYTIGLGQTNMSFVNDREDIYSMSLTVLSKLIKSYNIDTNKIGRLEVGTETLIDKSKSVKSVLMQLFGENTDVEGIDTLNACYGGTNALFNSLNWIESNAWDGRDAIVVCGDIAIYDKGAARPTGGAGTVAMWIGPDAPIVFDSVRASYMEHAYDFYKPDFTSEYPYVDGHFSLTCYVKALDQVYKSYSKKAISKGLVSDPAGSDALNVLKYFDYNVFHVPTCKLVTKSYGRLLYNDFRANPQLFPEVDAELATRDYDESLTDKNIEKTFVNVAKPFHKERVAQSLIVPTNTGNMYTASVYAAFASLLNYVGSDDLQGKRVGLFSYGSGLAASLYSCKIVGDVQHIIKELDITNKLAKRITETPKDYEAAIELRENAHLKKNFKPQGSIEHLQSGVYYLTNIDDKFRRSYDVKK", "soluble on expression in E. coli": "soluble"}
{"sequence": "PVFENNNQRYYESLPFKQLKELKIACSQYGPTAPFTIAMIENLGTQALPPNDWKQTARACLSGGDYLLWKSEFFEQCARIADVNRQQGIQTSYEMLIGEGPYQATDTQLNFLPGAYAQISNAARQAWKRLPSLEHHHHHH", "soluble on expression in E. coli": "soluble"}
{"sequence": "MQFWRKQMSEIQHFSQQDIEILGEQTLYEGFFTLKRIQFKHKLFAGGQSGVVTRELLIKGAASAVIAYDPKEDSVILVEQVRIGAAYHPESHRSPWLLELIAGMVEKGEKPEDVALRESEEEAGIQVKNLTHCLSVWDSPGGIVERIHLFAGEVDSAQAKGIHGLAEENEDIKVHVVKREQAYQWMCEGKIDNGIAVIGLQWLQLNYAQLQQSWKRS", "soluble on expression in E. coli": "not soluble"}
{"sequence": "NTTGGRFVDKDNRKYYVKDDHKAIYWHKIDGKTYYFGDIGEMVVGWQYLEIPGTGYRDNLFDNQPVNEIGLQEKWYYFGQDGALLEQTDKQVLEAKTSENTGKVYGEQYPLSAEKRTYYFDNNYAVKTGWIYEDGNWYYLNKLGNFGDDSYNPLPIGEVAKGWTQDFHVTIDIDRSKPAPWYYLDASGKMLTDWQKVNGKWYYFGSSGSMATGWKYVRGKWYYLDNKNGDMKTGWQYLGNKWYYLRSSGAMVTGWYQDGLTWYYLNAGNGDMKTGWFQVNGKWYYAYSSGALAVNTTVDGYSVNYNGEWVQ", "soluble on expression in E. coli": "soluble"}
{"sequence": "MKEILDHYGSLLSRIDDWFRACLDSSGDRIRCADGCSDCCRGLFDITLLDAAFLRRGFDRLDPEVREQVLVRCRERIAILRLVWPEFDQPFILNMRPDDEWEALMPDDDETPCPLLDRHGRCLVYEHRPMTCRLHGLPLVDVSGEIMHDEWCTLNCIDADPLADPALRGDFDRIFTEEVRLIRTFAGRLLGHPLSEVDTFIPTALVIAFDSINWLSWGNRLAALSLSDPRSKLEHHHHHH", "soluble on expression in E. coli": "not soluble"}
{"sequence": "MGSDKIHHHHHHMKQKLRLIQRRTVHYLLVVTYWISKFFPVQTKKVVFATYRSDKLVDNFRAVYDELESRELGFQYVFLLKRFPQNLIGQIKYVFHMMRATYELATARYFIIDDYYYPVYVSKLRKGTEVIQLWHACGAFKKFGYSVLDKSYSPDDDYLKMVAIHRNYSKVYVSGEACIGPFAEAFGMDSTRIHPLGVPRTDQLLNRERQVQIEHKLYDRYPEWRSKKLILLAPTFRGNGQTTAHYDQELDFQQFREQLGPDHILLLRMHPFVLNRPVVPAEFSNQIIDMTDYPDINDLMQVADILVTDYSSVIFEFALLKKPIILLVNDLNAYREERDFYFPYESFVPGPIVSSFNDVISWIKAGQFEPEQIEDFAARFFTYQDGLATKRIVNHILTGALPDAPMRPEERKTV", "soluble on expression in E. coli": "not soluble"}
